The values below come from patent publication US20190225669A1.

Holding throughout (settings): remark: other sources report otherwise
In experiment [1] the target is GDF8, O14793. As to the kind of experiment: Biacore SPR.
Experiment [2] concerns the target GDF8, O14793. As to the kind of experiment: Biacore SPR; † very low signal. (In general: SPR reads the build-up and loss of mass on a sensor chip optically.)
Experiment [3] addresses T1, BMP7, P18075.
T1 chain: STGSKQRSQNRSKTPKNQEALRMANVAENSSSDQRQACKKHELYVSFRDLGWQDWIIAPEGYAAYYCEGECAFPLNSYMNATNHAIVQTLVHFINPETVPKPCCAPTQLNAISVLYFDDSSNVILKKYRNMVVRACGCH
Kind of experiment: Biacore SPR.

Sequence of GDF8, O14793 (O14793 267-375 limits assumed): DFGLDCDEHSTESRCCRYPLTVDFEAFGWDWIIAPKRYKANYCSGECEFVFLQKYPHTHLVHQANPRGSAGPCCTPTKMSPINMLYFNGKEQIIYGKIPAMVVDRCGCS

B1: ALK4-Fc homodimer, P36896 24-126 (Fc fusion, UniProt P36896 24-126, looked up, not shown: a dimerising Fc or GST)
chain: SGPRGVQALLCACTSCLQANYTCETDGACMVSIFNLDGMEHHVRTCIPKVELVPAGKPFYCLSSEDLRNTHCCYTDYCNRIDLRVPSGHLKEPEHPSMWGPVE
The term koff denotes the first-order rate constant of dissociation. A high value points to fast dissociation. In general, kon refers to a measure of how fast the partners come together. Broadly, the Kd is the free concentration of one partner at which half of the binding sites on the other are occupied at equilibrium, for simple one-to-one binding. Read a low Kd as tighter binding. In experiment [1], B1 had a koff of 0.0019 s⁻¹ and a kon of 130000 M⁻¹ s⁻¹. Moreover, the Kd in experiment [2] stood at 15 nM.

B2: ALK3-Fc homodimer, P36894 24-152 (Fc fusion, UniProt P36894 24-152, looked up, not shown: a dimerising Fc or GST)
chain: QNLDSMLHGTGMKSDSDQKKSENGVTLAPEDTLPFLKCYCSGHCPDDAINNTCITNGHCFAIIEEDDQGETTLASGCMKYEGSDFQCKDSPKAQLRRTIECCRTNLCNQYLQPTLPPVVIGPFFDGSIR
For B2, in experiment [3], the Kd was 15 nM, the koff was determined as 0.018 s⁻¹ and the kon was 1.2e+06 M⁻¹ s⁻¹.
